Data published in US20220289833A1 (BIOSION, published 2022).
Read-outs that look alike come from different tables or passages of the source.

T1: Recombinant cynomolgus monkey TSLP-his (cynomolgus monkey)
T1 construct: Prepared in-house; Amine-coupled to CM5 chip in SPR, coated on plates in the indirect ELISA; also called cynomolgus TSLP; cynomolgus TSLP-his protein
T1 chain: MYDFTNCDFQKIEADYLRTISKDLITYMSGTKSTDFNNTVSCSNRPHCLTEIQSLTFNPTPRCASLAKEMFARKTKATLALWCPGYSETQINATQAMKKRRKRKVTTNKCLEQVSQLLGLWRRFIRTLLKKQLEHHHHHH


Legend:
[1] = biological target: T2, Recombinant human TSLP-his (human, UniProt Q969D9 29-159); assay: SPR, BIAcore; protocol of Example 2
T2 construct: Prepared in-house; Amine-coupled to CM5 chip in SPR, loaded on APS sensors in Octet, biotin-labeled in the capture ELISA, unlabeled in the cell functional assays; also called human TSLP-his protein

[2] = biological target: T1, Recombinant cynomolgus monkey TSLP-his; assay: SPR, BIAcore; protocol of Example 2
[3] = biological target: T1, Recombinant cynomolgus monkey TSLP-his; assay: indirect ELISA on coated cynomolgus TSLP-his
[4] = biological target: T1, Recombinant cynomolgus monkey TSLP-his; assay: indirect ELISA on coated cynomolgus TSLP-his
[5] = biological target: T2, Recombinant human TSLP-his; assay: BLI, Octet; TSLP-his loaded on APS biosensor, antibody in solution; 1:1 Langmuir fit
[6] = biological target: T2, Recombinant human TSLP-his; assay: SPR, Biacore T200; TSLP-his amine-coupled to CM5 chip, antibody as analyte; 1:1 Langmuir fit
[7] = biological target: T3, human TSLP-Fc (human, biotin-labeled); assay: competitive ELISA: antibody pre-mixed with biotin-labeled human TSLP-Fc; blocked binding to coated Tezepelumab
T3 construct: Prepared in-house; also called biotin-labeled human TSLP-Fc; TSLP-Fc-biotin

[8] = biological target: T3, human TSLP-Fc; assay: as above; remark: listed apart in the source
[9] = biological target: T3, human TSLP-Fc; assay: as above; remark: listed apart in the source
[10] = biological target: T2, Recombinant human TSLP-his; assay: capture ELISA: antibody captured on anti-IgG Fc coat, biotin-labeled human TSLP-his detected with streptavidin-HRP
[11] = biological target: T2, Recombinant human TSLP-his; assay: as above; remark: listed apart in the source
[12] = biological target: T2, Recombinant human TSLP-his; assay: as above; remark: listed apart in the source
[13] = biological target: T2, Recombinant human TSLP-his; assay: as above; remark: listed apart in the source
[14] = biological target: T3, human TSLP-Fc; assay: competitive ELISA: antibody pre-mixed with biotin-labeled human TSLP-Fc; blocked binding to coated human TSLPR-Fc/IL7Ra-Fc
[15] = biological target: T3, human TSLP-Fc; assay: as above; remark: listed apart in the source
[16] = biological target: T3, human TSLP-Fc; assay: as above; remark: listed apart in the source
[17] = biological target: T3, human TSLP-Fc; assay: cell-based ligand-blocking FACS: antibody pre-mixed with human TSLP-Fc; blocked binding to BAF3-3E6 cells expressing human TSLPR and IL7R
[18] = biological target: T3, human TSLP-Fc; assay: as above; remark: listed apart in the source
[19] = biological target: T3, human TSLP-Fc; assay: as above; remark: listed apart in the source
[20] = biological target: T3, human TSLP-Fc; assay: as above; remark: listed apart in the source
[21] = biological target: T1, Recombinant cynomolgus monkey TSLP-his; assay: indirect ELISA on coated cynomolgus TSLP-his; the row head of the drawn table reads IC50 although the curve rises (EC50 values were reported)
[22] = biological target: T2, Recombinant human TSLP-his; assay: SPR, Biacore T200; protocol of Example 2
[23] = biological target: T3, human TSLP-Fc; assay: cell-based ligand-blocking FACS: antibody pre-mixed with human TSLP-Fc; blocked binding to BAF3-3E6 cells expressing human TSLPR and IL7R; lower plateau at MFI about 550 (partial blocking)
[24] = biological target: T1, Recombinant cynomolgus monkey TSLP-his; assay: SPR, Biacore T200; cynomolgus TSLP-his amine-coupled to CM5 chip, antibody as analyte; 1:1 Langmuir fit
[25] = biological target: T3, human TSLP-Fc; assay: competitive ELISA: antibody pre-mixed with biotin-labeled human TSLP-Fc; blocked binding to coated Tezepelumab; remark: listed apart in the source
[26] = biological target: T3, human TSLP-Fc; assay: competitive ELISA: antibody pre-mixed with biotin-labeled human TSLP-Fc; blocked binding to coated human TSLPR-Fc/IL7Ra-Fc; remark: listed apart in the source
[27] = biological target: T1, Recombinant cynomolgus monkey TSLP-his; assay: SPR, Biacore T200; cynomolgus TSLP-his amine-coupled to CM5 chip, antibody as analyte

Binder | Kd [1] | koff [1] | kon [1] | Kd [2] | koff [2] | kon [2] | EC50 [3] | EC50 [4] | Kd [5] | Kd [6] | koff [6] | kon [6] | IC50 [8] | IC50 [9] | EC50 [12] | IC50 [15] | IC50 [16] | IC50 [17] | IC50 [19] | IC50 [20] | further results
Chimeric 1C5F12E9 (antibody, human IgG1, kappa, V domains shown, Human IgG1/kappa chimera expressed in 293F cells; also called chimeric 1C5F12E9 antibody) VH: QVQLQQPGTELVKPGASVKMSCKASGYTFTTYWMHWVKQRPGQGLEWIGVIDPSDSDTTYNQKFKGKATLTVDTSSSTAYMQLSSLTSEDSAVYYCTRSLDGYYDYWGQGTTLTVSS VL: DIQMTQSPASLSASVGETVTITCRPTENIYSYLAWYQQKQGKSPHLLVYFARTLAEGVPSRFSGSGSGTQFSLKINSLQPEDFGIYYCQHHYGTPWTFGGGTKLEIKR | < 0.0517 nM | < 1e-05 s⁻¹ | 193000 M⁻¹ s⁻¹ | < 0.0261 nM | < 1e-05 s⁻¹ | 383000 M⁻¹ s⁻¹ |  | 0.0918 nM | 0.222 nM |  |  |  |  | 0.291 nM |  |  | 0.1 nM | 0.627 nM |  | ~3.12 nM | Kd [22]: 0.914 nM; koff [22]: 6.36e-05 s⁻¹; kon [22]: 69600 M⁻¹ s⁻¹; koff [5]: 0.000159 s⁻¹; kon [5]: 715000 M⁻¹ s⁻¹; EC50 [10]: 0.448 nM; EC50 [13]: 0.161 nM
Mouse D1C2H1H1 (antibody, V domains shown, Mouse hybridoma mAb) VH: QVTLKESGPGILQPSQTLSLTCSFSGFSLSTYGMGIGWIRLPSGKGLEWLASIWWDDNRYFNAALKSRLTISKDASKNQVFLKIASVDTADTATYYCARIEDGYYSYHSYWGQGTLVTVSA VL: DIVLTQSPASLAVSLGQRATISCKASQSVDFDGDSYMNWFQQKPGQPPKLLIYAASNLVSGIPARFSGSGSGTDFTLNIHPVEEEDAATYYCQQIDEDPYTFGGGTKLEIE |  |  |  |  |  |  | 4.18 nM |  |  | < 0.0149 nM | < 1e-05 s⁻¹ | 672000 M⁻¹ s⁻¹ | 0.12 nM |  | 0.17 nM | 0.114 nM |  |  | 2.14 nM |  | Kd [27]: 7.23 nM

Continued, in another order:

Kd [1] | koff [1] | kon [1] | Kd [2] | koff [2] | kon [2] | EC50 [3] | EC50 [4] | Kd [5] | Kd [6] | koff [6] | kon [6] | IC50 [8] | IC50 [9] | EC50 [12] | IC50 [15] | IC50 [16] | IC50 [17] | IC50 [19] | IC50 [20] | Binder | further results
< 0.0966 nM | < 1e-05 s⁻¹ | 104000 M⁻¹ s⁻¹ | < 0.0346 nM | < 1e-05 s⁻¹ | 289000 M⁻¹ s⁻¹ | 0.101 nM | 0.202 nM | 0.226 nM | < 0.11 nM | < 1e-05 s⁻¹ | 91100 M⁻¹ s⁻¹ | 0.262 nM | 0.366 nM | 0.146 nM | 0.391 nM | 0.139 nM | 0.514 nM | 1.63 nM | 2.41 nM | mouse 1C5F12E9 (antibody, V domains shown, also called mouse anti-TSLP 1C5F12E9 antibody) VH: QVQLQQPGTELVKPGASVKMSCKASGYTFTTYWMHWVKQRPGQGLEWIGVIDPSDSDTTYNQKFKGKATLTVDTSSSTAYMQLSSLTSEDSAVYYCTRSLDGYYDYWGQGTTLTVSS VL: DIQMTQSPASLSASVGETVTITCRPTENIYSYLAWYQQKQGKSPHLLVYFARTLAEGVPSRFSGSGSGTQFSLKINSLQPEDFGIYYCQHHYGTPWTFGGGTKLEIK | koff [5]: 0.000135 s⁻¹; kon [5]: 600000 M⁻¹ s⁻¹; IC50 [7]: 0.15 nM; EC50 [10]: 0.36 nM; EC50 [11]: 0.16 nM; EC50 [13]: 0.151 nM; IC50 [14]: 0.694 nM; IC50 [18]: 0.625 nM; EC50 [21]: 0.407 nM
 |  |  |  |  |  |  |  |  | 0.18 nM | 3.09e-05 s⁻¹ | 172000 M⁻¹ s⁻¹ |  |  | 0.126 nM | 0.5 nM |  |  |  |  | Mouse D1D8H9F7 (antibody, V domains shown, Mouse hybridoma mAb) VH: QVQLQQSGADLVRPGSSVKISCKTSGFAFSSYYMNWVKQRPGQGLEWIGQIYPGDGETNYNGKFKDKATLTADKSSSTVYMQLSSLTSEDSAVYFCARAGYSDYVYAMDYWGQGTSVTVSS VL: EIVLTQSPALMAASPGEKVTIICSVSSSITSSNLHWYQQKSETSPKPWIYGTSNLASGVPVRFSGSGSGTSYSLTISSMEAEDAATYYCQQWSSFPLTFGSGTKLEIK | binding result [3]: no binding (tested: about 67 nM); IC50 [23]: 1.83 nM
 |  |  | 0.0672 nM |  |  | 0.127 nM | 0.105 nM |  |  |  |  | 0.495 nM | 0.486 nM |  | 0.506 nM | 0.0777 nM | 0.728 nM | 1.48 nM | 1.45 nM | Tezepelumab (antibody, human IgG2, lambda, V domains shown, also called TSLP-BM; benchmark) VH: QMQLVESGGGVVQPGRSLRLSCAASGFTFRTYGMHWVRQAPGKGLEWVAVIWYDGSNKHYADSVKGRFTITRDNSKNTLNLQMNSLRAEDTAVYYCARAPQWELVHEAFDIWGQGTMVTVSS VL: SYVLTQPPSVSVAPGQTARITCGGNNLGSKSVHWYQQKPGQAPVLVVYDDSDRPSWIPERFSGSNSGNTATLTISRGEAGDEADYYCQVWDSSSDHVVFGGGTKLTVLG | Kd [24]: 0.0733 nM; IC50 [7]: 0.18 nM; IC50 [25]: 5.79 nM; IC50 [14]: 0.99 nM; IC50 [26]: 6.27 nM; IC50 [18]: 0.759 nM
